Data on 1 molecule can be found in paper PMC13503762 (Nature Communications, 2026).

The assay has as its target SARS-CoV-2 M protein (purified, in LMNG/CHS detergent) (SARS-CoV-2, UniProt P0DTC5). In words: cryo-EM structure. The note with it: both partners purified.

B1: long conformation Fab (lcFab) (Fab, V domains shown)
VH: EVQLQQSGAELVRPGSSVKISCKGSGYVFSNYWMNWVKQRPGQGLEWIGQIYPGDGDTNYNGKFKGKATLTADKSSSTAYMQLSSLTSEDSAVYFCASGYLGENYVMDFWGQGTSVTVSS
VL: DIVLTQSPASLTVSLGQRATISCRASESVDSFGNSFMHWYQQKPGQPPKLLIYRASNLESGIPARFSGSGSRTDFTLTINPVEADDVATYYCQQSSEDPYTFGGGTKLEIK
notes: also called Fab targeting M_(long)
In the case of B1, the binding result is listed as “binds”.
